Measurements as given in patent publication US20260193317A1, “COMBINATION THERAPY WITH ACTRIIB RECEPTOR VARIANTS AND GLP-1 AGONISTS” (35PHARMA Inc., priority 2023, published 2026).
Like-named read-outs stand apart in the source and are kept apart here.

How the values were obtained:
[1] = Single-injection body weight gain in wild-type mice; assay type: in vivo; conditions: single 25 mg/kg subcutaneous injection, after 4 days, vs vehicle
Protocol: To investigate the target engagement of exemplary ActRIIB-ECD polypeptide constructs in vivo, mice (n=6/group) were injected with given agents (25 mg/kg, subcutaneous injection), and sacrificed after 4 days to assess body weight gain.

[2] = Skeletal muscle mass and Mss51 expression in lean mice; assay type: in vivo
Protocol: The effects of P1229 on body composition and metabolism in lean mice were further assessed.
Additional assays were performed to assess the relative expression level of Mss51, a skeletal muscle-specific gene. Mss51 is a key target of myostatin signaling, with a role in fatty acid oxidation, glycolysis, and oxidative phosphorylation.

[3] = test system: diet-induced obese (DIO) mice; assay: Body composition and metabolism in diet-induced obese (DIO) mice; assay type: in vivo
Protocol: (§1) Experiments were performed to assess the effects of P1229 on body composition and metabolism in diet-induced obese (DIO) mice. DIO mice were purchased from Jackson Laboratories (#380050). Briefly, mice were fed a high-fat diet (HFD, 60% kcal from fat) from 6 weeks of age until 22 weeks of age (total of 16 weeks on the HFD). […] After 3 weeks of treatments, some animals were sacrificed and scanned by EchoMRI […] (FIGS. 11A-F), while others were sacrificed for tissue collection and RNA analysis. Animals were maintained on the HFD throughout the acclimatization and treatment periods. The murine version of bimagrumab used for these experiments comprises the heavy chain amino acid sequence of SEQ ID NO: 376 and the light chain sequence of SEQ ID NO: 377.

[4] = test system: follicle-stimulating hormone (FSH); assay: FSH production in DIO mice; assay type: in vivo; conditions: 3 weeks of treatment
Protocol: as §1
Follicle-stimulating hormone (FSH) is a known biomarker of in vivo target engagement for activin receptor-based traps (See Attie et al. (2013). Muscle Nerve, 47: 416-423). To further validate in vivo target engagement for exemplary agents, FSH production was evaluated in DIO mice, as described above.

[5] = Single subcutaneous injection in CD-1 mice: body weight; assay type: in vivo; conditions: CD-1 male mice, single s.c. injection; P1229 50 mg/kg, semaglutide 2 mg/kg
activin A [6] = target: T1, activin A (Homo sapiens, UniProt P08476); assay: TGFβ-reporter HEK293 cell-based assay: activin A neutralization; conditions: for IC50: read-out: CBA Potency Activin A; for CBA potency Activin A, potency fold-change: relative to reference (P1372 = 1)
T1 sequence (P08476 311-426): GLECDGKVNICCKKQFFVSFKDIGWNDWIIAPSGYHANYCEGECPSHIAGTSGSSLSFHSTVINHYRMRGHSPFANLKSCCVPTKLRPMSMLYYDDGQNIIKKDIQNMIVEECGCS
Protocol: (§2) Potency testing by neutralization on cell-based assays. Characterization of the activin A, activin B, GDF-8, and GDF-11 inhibition potency (IC50) of the fusion proteins was performed using a cell-based reporter assay. TGFβ-reporter HEK293 cells were obtained from InvivoGen (San Diego, CA, cat. no. hkb-tgfb) and were maintained following the manufacturer's instructions. Briefly, cells were grown in high-glucose DMEM, containing 10% heat-inactivated FBS, 30 μg/mL blasticidin, 250 μg/mL hygromycin B, and 100 μg/mL zeocin (hereafter, “growth medium”). Once the cells reached 70-80% confluence, they were detached in growth medium by gently tapping on the flask. For all assays, cells were seeded in 96-well plates at a density of 20,000 cells per well in growth medium. Cells were left to attach for 10 minutes at room temperature (RT) prior to being transferred to a 37° C. incubator (5% CO2) overnight. The next day, treatments were prepared by combining the appropriate concentration of agent with activin A, activin B, GDF-8, or GDF-11 for 30 min at RT (shaking at 150 rpm). Treatments were conducted in high-glucose DMEM (serum-free and with no selection agents), and the final concentration of cytokine (ligand) was 0.3 nM. Growth medium was removed from the culture plates, and cells were treated with the appropriate mixes of fusion protein and cytokine. Treatment duration was for 18-22 h at 37° C. (5% CO2). All treatments were performed in technical duplicates and at least one or two independent experiments were conducted for each cytokine. At the end of the treatment period, supernatants were transferred to a new plate, and centrifuged at 300 RPM for 3 min. Forty microlitres of supernatant from each condition was transferred to a new plate, into which 180 μL of Quanti-Blue reagent (InvivoGen, cat. no. rep-qbs) was added. Quanti-Blue reagent was prepared following the manufacturer's instructions. Samples were incubated for 45 min at 37° C. At the end of the incubation, absorbance was read at 650 nm. The data were plotted in GraphPad Prism, which was used to calculate IC50 values as a non-linear regression.

GDF-8 = GDF-8 (Homo sapiens, UniProt O14793); assay: TGFβ-reporter HEK293 cell-based assay: GDF-8 neutralization; conditions: for IC50: read-out: CBA Potency GDF-8; for CBA potency GDF-8, potency fold-change: relative to reference (P1372 = 1)
Protocol: as §2

activin A [7] = target: T1, activin A; assay: Potency testing by ELISA: activin A binding; conditions: for ELISA potency Activin A, potency fold-change: relative to reference (P1372 = 1)
Source text: Potency testing by ELISA. […] The next day, the plate was washed three times with buffer (Biolegend #421601).

[8] = Co-formulation study of ectodomain-based traps with incretin mimetics (monomer content by SEC / RP-HPLC, integrity, stability); assay type: physicochemical
Protocol: In each case, the following parameters were assessed: a) monomer content (size exclusion chromatography), b) activin A and GDF-8 neutralization (cell-based assays [CBAs]), c) activin A binding (ELISA), d) GLP-1 receptor binding (ELISA).
In each case, the following parameters were assessed: a) monomer content (size exclusion chromatography), b) activin A and GDF-8 neutralization (cell-based assays [CBAs]), and c) GLP-1 receptor activation (CBA).
Given that protein aggregation can be indicative of reduced conformational stability and decreased activity, Size-Exclusion Chromatography-High Performance Liquid Chromatography (SEC-HPLC) was used to determine the purity of each ActRIIB-ECD construct. This method measured the percentage of intact monomeric species as well as the presence of aggregates and/or degradation products.
In some instances, the method used to assess the purity of an agent was based on a reversed-phase high-performance liquid chromatography (RP-HPLC) setup with a C18 column. The mobile phases consisted of acetonitrile with 0.1% formic acid (organic phase) and water with 0.1% formic acid (aqueous phase). […] Formic acid anions form an ion pair with positively charged peptides, increasing their hydrophobicity and therefore their retention time. Detection was performed using a UV detector, at 280 nm.

[9] = D 7 after storage at room temperature
[10] = D 28, storage at room temperature

P1229: hActRIIB L33W, 14 aa linker, IgG1-DL Fc; SEQ ID 211
body weight gain [1]: apparent body weight gain that did not reach statistical significance
tibialis anterior and gastrocnemius weight ([2]; 25 mg/kg twice weekly, seven days): significantly increased
Mss51 expression in the tibialis muscle relative to vehicle ([2]; 5 or 25 mg/kg twice weekly, one week): dose-dependent decrease in Mss51 expression
hepatic Ahsg expression [3]: reduced Ahsg expression
hepatic Fgf21 expression [3]: reduced
Mss51 gene expression in gastrocnemius muscle ([3]; 3 weeks): reduced Mss51 gene expression
ratio of lean mass to fat mass ([3]; 3 weeks): higher
fat mass and lean mass (EchoMRI) ([3]; 3 weeks s.c., P75, P1229 25 mg/kg twice weekly, P1373 5, 20, 50 mg/kg twice weekly, P1307 20 mg/kg weekly): fat loss with concomitant lean mass gain
FSH production [4]: significant decreases in FSH production
body weight [5]: increased body weight

B1: P1372: hActRIIB L33W, 14 aa linker, IgG1 YTE-DL Fc; SEQ ID 231 (protein)
chain: ETRECIYYNANWELERTNQSGLERCEGEQDKRWHCYASWRNSSGTIELVKKGCWLDDFNCYDRQECVATEENPQVYFCCCEGNFCNERFTHLPEAGGPEVTYEPPPTGGGGSGGGGSGGGGTHTCPPCPAPELLGGPSVFLFPPKPKDTLYITREPEVTCVVVDVSHEDPEVKFNWYVDGVEVHNAKTKPREEQYNSTYRVVSVLTVLHQDWLNGKEYKCKVSNKALPAPIEKTISKAKGQPREPQVYTLPPSRDELTKNQVSLTCLVKGFYPSDIAVEWESNGQPENNYKTTPPVLDSDGSFFLYSKLTVDKSRWQQGNVFSCSVMHEALHNHYTQKSLSLSPG
CBA potency Activin A, fold-change vs reference (activin A [6]; D 0): 1 (ref)
IC50 (activin A [6]; D 0): 590 pM
IC50 (activin A [6]; D 7, 2-8° C.): 810 pM
IC50 (activin A [6]; D 7, RT): 780 pM
CBA potency Activin A, fold-change vs reference (activin A [6]; D 7 after storage at 2-8° C.): 1 (ref)
CBA potency Activin A, fold-change vs reference (activin A [6]; [9]): 1 (ref)
IC50 (activin A [6]; D 14, 2-8° C.): 630 pM
IC50 (activin A [6]; D 14, RT): 740 pM
IC50 (activin A [6]; D 28, 2-8° C.): 990 pM
IC50 (activin A [6]; D 28, RT): 900 pM
CBA potency Activin A, potency fold-change (activin A [6]; D 28, storage at 2-8° C.): 1 (ref) fold
CBA potency Activin A, potency fold-change (activin A [6]; [10]): 1 (ref) fold
IC50 (activin A [6]; D 56, RT): 1100 pM
CBA potency GDF-8, fold-change vs reference (GDF-8; D 0): 1 (ref)
IC50 (GDF-8; D 0): 270 pM
IC50 (GDF-8; D 7, 2-8° C.): 220 pM
IC50 (GDF-8; D 7, RT): 240 pM
CBA potency GDF-8, fold-change vs reference (GDF-8; D 7 after storage at 2-8° C.): 1 (ref)
CBA potency GDF-8, fold-change vs reference (GDF-8; [9]): 1 (ref)
IC50 (GDF-8; D 14, 2-8° C.): 350 pM
IC50 (GDF-8; D 14, RT): 360 pM
IC50 (GDF-8; D 28, 2-8° C.): 450 pM
IC50 (GDF-8; D 28, RT): 440 pM
CBA potency GDF-8, potency fold-change (GDF-8; D 28, storage at 2-8° C.): 1 (ref) fold
CBA potency GDF-8, potency fold-change (GDF-8; [10]): 1 (ref) fold
IC50 (GDF-8; D 56, 2-8° C.): 340 pM
IC50 (GDF-8; D 56, RT): 360 pM
ELISA potency Activin A, fold-change vs reference (activin A [7]; D 0): 1 (ref)
ELISA potency Activin A, fold-change vs reference (activin A [7]; D 7 after storage at 2-8° C.): 1 (ref)
ELISA potency Activin A, fold-change vs reference (activin A [7]; [9]): 1 (ref)
ELISA potency Activin A, potency fold-change (activin A [7]; D 28, storage at 2-8° C.): 1 (ref) fold
ELISA potency Activin A, potency fold-change (activin A [7]; [10]): 1 (ref) fold
Monomer content P1372 ([8]; D 0, P1372 40 mg/mL, semaglutide […], pH 7.5): 99.3%
Monomer Content (%) P1372 ([8]; D 0, P1372 40 mg/mL, tirzepatide 10 mg/mL, 10 mM NaPO4, 100 mM Glycine, 75 mM sucrose (pH 7.5)): 98.9%
Monomer Content (%) P1372 ([8]; D 7, 2-8° C.): 98.9%
Monomer Content (%) P1372 ([8]; D 7, RT): 98.8%
Monomer content P1372 ([8]; D 7 after storage at 2-8° C.): 99.3%
Monomer content P1372 [8, 9]: 99.2%
Monomer Content (%) P1372 ([8]; D 14, 2-8° C.): 98.8%
Monomer Content (%) P1372 ([8]; D 14, RT): 97.9%
Monomer Content (%) P1372 ([8]; D 28, 2-8° C.): 98.9%
Monomer Content (%) P1372 ([8]; D 28, RT): 98.6%
Monomer content P1372 ([8]; D 28, storage at 2-8° C., 10 mM NaPO4, 100 mM glycine, 75 mM sucrose pH 7.5): 99.2%
Monomer content P1372 ([8]; D 28, storage at room temperature, 10 mM NaPO4, 100 mM glycine, 75 mM sucrose pH 7.5): 98.8%
Monomer Content (%) P1372 ([8]; D 56, 2-8° C.): 98.8%
Monomer Content (%) P1372 ([8]; D 56, RT): 98.4%
